Paper PMC3553976

What was measured:
U2AF65 RRM123 = U2AF65 RRM123 (Homo sapiens, UniProt P26368 147-475); assay: EMSA
[1] = biological target: U2AF65 RRM123;SF1 2-320 delta-linker (Homo sapiens;Homo sapiens?, UniProt P26368;Q15637 147-475;2-320, |del75-90); assay: EMSA
U2AF65 RRM123;SF1 1-260 [2] = biological target: T1, U2AF65 RRM123;SF1 1-260 (Homo sapiens;Homo sapiens, UniProt P26368;Q15637 147-475;1-260, |); assay: EMSA
U2AF65 RRM123;SF1 2-320 = U2AF65 RRM123;SF1 2-320 (Homo sapiens;Homo sapiens?, UniProt P26368;Q15637 147-475;2-320, |); assay: EMSA
[3] = biological target: U2AF65 RRM123;SF1 2-320 delta-alpha1 (Homo sapiens;Homo sapiens?, UniProt P26368;Q15637 147-475;2-320, |del35-68); assay: EMSA
U2AF65 RRM123;SF1 1-260 [4] = biological target: T1, U2AF65 RRM123;SF1 1-260; assay: SAXS

Measured: binding result

Chain of U2AF65 RRM123 (P26368 147-475, one chain of several): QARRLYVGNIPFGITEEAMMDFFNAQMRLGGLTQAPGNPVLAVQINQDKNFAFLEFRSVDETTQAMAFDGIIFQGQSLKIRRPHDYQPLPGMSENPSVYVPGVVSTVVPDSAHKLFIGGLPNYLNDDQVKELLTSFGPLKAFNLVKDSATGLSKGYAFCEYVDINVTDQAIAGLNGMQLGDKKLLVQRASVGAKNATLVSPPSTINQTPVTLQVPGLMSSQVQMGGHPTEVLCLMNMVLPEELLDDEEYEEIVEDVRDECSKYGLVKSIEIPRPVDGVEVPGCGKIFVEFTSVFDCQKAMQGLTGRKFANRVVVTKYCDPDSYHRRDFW

GGUCAUACUAACCCUGUCCCUUUUUUUUCCACAGC (ssRNA) [3'-splice site RNA (AdML intron 1, consensus BPS)]
not listed: U2AF65 RRM123;SF1 1-260 [4]
binds: all other assays above

UAUACUAACAAUUUUUUUUU (ssRNA) [20-mer BPS-Py tract RNA]
binds: U2AF65 RRM123;SF1 1-260 [4]
